The text below walks through data of patent US20220324938A1 (published 2022).

Common to all, as to assay: multimer staining
For assay [1], the target named is T1, SSX2 peptide on HLA-A*02:01 (human).
T1 peptide: KASEKIFYV

In assay [2] the target is T2, MART1 peptide on HLA-B*18:01 (human).
T2 peptide: EEAAGIGIL

Assay [3] addresses T3, MAGE-A1 peptide on HLA-B*07:02 (human).
T3 peptide: RVRFFFPSL

Assay [4] concerns the target T4, MAGE-A3 peptide on HLA-B*18:01 (human).
T4 peptide: MEVDPIGHLY

B1: A*02:01/SSX241-49 TCR (TCR, V domains shown)
Valpha: KQEVTQIPAALSVPEGENLVLNCSFTDSAIYNLQWFRQDPGKGLTSLLLIQSSQREQTSGRLNASLDKSSGRSTLYIAASQPGDSATYLCAVEPMEYGNKLVFGAGTILRVKS
Vbeta: DGGITQSPKYLFRKEGQNVTLSCEQNLNHDAMYWYRQDPGQGLRLIYYSQIVNDFQKGDIAEGYSVSREKKESFPLTVTSAQKNPTAFYLCASSALFSGANVLTFGAGSRLTVL
For the molecule B1, the binding result in assay [1] is recorded as “recognises”.

B2: B*18:01/MART125-33 TCR (TCR, V domains shown)
Valpha: GQNIDQPTEMTATEGAIVQINCTYQTSGFNGLFWYQQHAGEAPTFLSYNVLDGLEEKGRFSSFLSRSKGYSYLLLKELQMKDSASYLCAVYGGATNKLIFGTGTLLAVQP
Vbeta: NAGVMQNPRHLVRRRGQEARLRCSPMKGHSHVYWYRQLPEEGLKFMVYLQKENIIDESGMPKERFSAEFPKEGPSILRIQQVVRGDSAAYFCASSPHAGGVDEKLFFGSGTQLSVL
On to B2, for which the binding result in assay [2] is listed as “recognises”.

B3: B*07:02/MAGE-A1289-297 TCR (TCR, V domains shown)
Valpha: AQKVTQAQTEISVVEKEDVTLDCVYETRDTTYYLFWYKQPPSGELVFLIRRNSFDEQNEISGRYSWNFQKSTSSFNFTITASQVVDSAVYFCALSESYSGAGSYQLTFGKGTKLSVIP
Vbeta: DTGVSQNPRHKITKRGQNVTFRCDPISEHNRLYWYRQTLGQGPEFLTYFQNEAQLEKSRLLSDRFSAERPKGSFSTLEIQRTEQGDSAMYLCASSLASGSNQPQHFGDGTRLSIL
Take B3: the binding result in assay [3] is reported as “recognises”.

B4: B*18:01/MAGE-A3167-176 TCR (TCR, V domains shown)
Valpha: AQKVTQAQTEISVVEKEDVTLDCVYETRDTTYYLFWYKQPPSGELVFLIRRNSFDEQNEISGRYSWNFQKSTSSFNFTITASQVVDSAVYFCALEVRSSASKIIFGSGTRLSIRP
Vbeta: GAVVSQHPSWVICKSGTSVKIECRSLDFQATTMFWYRQFPKQSLMLMATSNEGSKATYEQGVEKDKFLINHASLTLSTLTVTSAHPEDSSFYICSANPRTTLYEQYFGPGTRLTVT
As for B4, the binding result in assay [4] is “recognises”.
